Test results from PMC3640046, “Structural Insights into a Wildtype Domain of the Oncoprotein E6 and Its Interaction with a PDZ Domain” (PLoS ONE, 2013).
Like-named read-outs stand apart in the source and are kept apart here. Residues, ends and D or L forms follow the SMILES beside them. No end group written: not given here.

What was measured:
hDlg = conditions: in vitro degradation assay; cited from earlier work
Text: One PDZ domain containing protein targeted by E6 for degradation in vivo is the multi-domain protein hDlg (human Dlg/hDlg1/SAP-97). […] Human Dlg is part of the Scribble polarity complex that controls basolateral polarity and it is required for adherens junction formation and differentiation of epithelial cells. Human Dlg is expressed in human keratinocytes and localizes to nuclear, cytoplasmic, membrane-associate ...

hDlgPDZ2 [1] = molecular target: T1, hDlgPDZ2 (Homo sapiens, UniProt Q12959); conditions: cited from earlier work
T1 construct: host or cells: E. coli BL21 (DE3)
Text: 51Z2 contains a carboxy-terminal PDZ-BM and the full-length protein causes the degradation of hDlg in vitro [32].

hDlgPDZ2 [2] = molecular target: T1, hDlgPDZ2; assay: Surface plasmon resonance (SPR) of hDlgPDZ2 with E6-derived peptides; type: binding; conditions: for kon: read-out: ka
Procedure: Figure 5 51Z2 derived E6CT6 peptide versus E6CT11 peptide binding to hDlgPDZ2. SPR data. A E6CT6, B E6CT11. Sensorgrams of E6CT6 and E6CT11 binding injected in triplicate (black lines) are shown overlaid with the best fit derived from a 1∶1 interaction model including a mass transport term (orange lines). Peptide concentrations of 3.125, 6.25, 12.5, 25, 50, 100 and 200 µM are shown. The binding parameters were obtained by kinetic analysis of association and dissociation phases (left panels) or by steady state analysis (right panels) utilizing signals of plateaus depicted in the corresponding left panel.
A detailed description of methods is provided in Text S1. Briefly, recombinant proteins were generated in E. coli BL21 (DE3). Cells were disrupted and protein solubility in cell-lysates was assessed. Soluble proteins were FPLC-purified and initially characterized by CD spectroscopy, dynamic light scattering, gel filtration chromatography and NMR spectroscopy. The affinity of E6-derived peptides to hDlgPDZ2 was elucidated utilizing Surface Plasmon Resonance. hDlgPDZ2 was generated by bacterial expression and FPLC purification. The generation of the labeled E6CT11 peptide was performed as previously described. The purified, monomeric 51Z2 and the purified, monomeric hDlgPDZ2 in complex with purified E6CT11 were subsequently structurally characterized by standard solution state NMR techniques.
[1H-‐15N]-‐HSQC-‐spectra

[3] = type: physicochemical; conditions: N-terminal His6-tag, E. coli BL21(DE3), 20 °C overnight expression with 10 µM Zn2+; cell extract in lysis buffer pH 7.3; centrifugation 10,000 x g, 4 °C, 30 min; Coomassie stained SDS-PAGE
Procedure: Assessment of solubility of amino-terminally His6-tagged, recombinant E6 constructs derived from the high-risk types 16, 18, 26, 31, 45, 51, 59 and 97 as well as for the non-tumorigenic cutaneous type 1a was performed after bacterial expression in presence of 10 µM of Zn^2+ as solubility of E6 constructs is dependent on low µM concentrations of zinc. None of the wild-type sequence full-length E6 constructs nor their respective N-terminal zinc-binding domain (ZBD) turned out to be soluble (Table S1). […] The soluble constructs are denoted as E6Z2 (e.g. 51Z2 stands for the second, i.e. C-terminal, ZBD of HPV 51 E6). […]

[4] = molecular target: T2, second PDZ domain of human Dlg (hDlg/hDlg1/SAP-97) (human, UniProt Q12959 318-406, 15N labelled in the titrations with the peptides); assay: SPR; kinetic analysis
T2 chain: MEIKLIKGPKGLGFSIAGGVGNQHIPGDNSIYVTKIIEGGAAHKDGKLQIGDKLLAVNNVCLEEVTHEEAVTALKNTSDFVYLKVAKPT

[5] = molecular target: T3, second PDZ domain of human Dlg (hDlg/hDlg1/SAP-97) (human, UniProt Q12959 318-406, 15N labelled in the titrations with the peptides); assay: SPR; peptides injected in triplicate at 3.125, 6.25, 12.5, 25, 50, 100 and 200 µM; kinetic analysis (1:1 interaction model with a mass transport term) and steady state analysis; conditions: both partners purified
T3 construct: also called hDlgPDZ2; PDZ domain 2 of hDlg; source: bacterial expression, FPLC purification

[6] = molecular target: T3, second PDZ domain of human Dlg …; assay: NMR titration; [1H,15N]-HSQC of 100 µM 15N labeled 51Z2 without or with 3 fold excess of unlabeled hDlgPDZ2; slow exchange on the NMR time scale; conditions: both partners purified
[7] = kinetic analysis, 1:1 interaction model including mass transport term, 25 °C, pH 7.4
[8] = kinetic analysis, 1:1 interaction model including mass transport term, Biacore 2000, 25 °C, His6-tagged hDlgPDZ2 on NTA chip, peptide 3.125-200 µM, 150 mM NaCl, 10 mM HEPES, 3 mM EDTA, 0.005% polysorbate 20, pH 7.4, injected in triplicate, read-out: KD (kinetic analysis)

In the case of “HPV 18 E6: E6 oncoprotein of high-risk HPV 18”, the “E6 dependent reduction of hDlg levels” value (hDlg) is given as “reduction of hDlg levels” and the “interaction with hDlgPDZ2” value (hDlgPDZ2 [1]) is given as “interact with hDlgPDZ2”.

For CC(=O)N[C@@H](CCC(N)=O)C(=O)N[C@@H](CCCNC(=N)N)C(=O)N[C@H](C(=O)N[C@@H](CCCNC(=N)N)C(=O)N[C@@H](CCC(N)=O)C(=O)N[C@@H](CCCNC(=N)N)C(=O)N[C@@H](CC(N)=O)C(=O)N[C@@H](CCC(=O)O)C(=O)N[C@H](C(=O)N[C@@H](CCC(N)=O)C(=O)N[C@H](C(=O)O)C(C)C)[C@@H](C)O)[C@@H](C)O [E6CT11, Ac-QRTRQRNETQV] (Ac-QRTRQRNETQV-OH), the Kd (hDlgPDZ2 [2]; SPR, 25 °C, pH 7.4, read-out: Kd) was under 10 µM, the kon (hDlgPDZ2 [2]; [7]) was 104000 M⁻¹ s⁻¹ and the Kd (hDlgPDZ2 [2]; [8]) was 9.79 ± 0.03 µM. It also gave a Kd (hDlgPDZ2 [2]; steady state analysis utilizing signals of plateaus, Biacore 2000, 25 °C, His6-tagged hDlgPDZ2 on NTA chip, peptide 3.125-200 µM, 150 mM NaCl, 10 mM HEPES, 3 mM EDTA, 0.005% polysorbate 20, pH 7.4, injected in triplicate, read-out: KD (steady state analysis)) of 9.63 ± 0.02 µM.

In the case of CC(=O)N[C@@H](CCCNC(=N)N)C(=O)N[C@@H](CC(N)=O)C(=O)N[C@@H](CCC(=O)O)C(=O)N[C@H](C(=O)N[C@@H](CCC(N)=O)C(=O)N[C@H](C(=O)O)C(C)C)[C@@H](C)O [E6CT6, Ac-RNETQV] (Ac-RNETQV-OH), the kon (hDlgPDZ2 [2]; [7]) is reported as 54000 M⁻¹ s⁻¹ and the Kd (hDlgPDZ2 [2]; [8]) is reported as 28.42 ± 0.05 µM.

For “18 E6FL: full-length HPV 18 E6, His6-tagged”, the “solubility of recombinant E6 construct” value [3] was “Insoluble”.

Ac-RNETQV (also called E6CT6 peptide) [E6CT6, N-terminally truncated 6mer peptide of the HPV 51 E6 C-terminus (Ac-RNETQV)] showed a koff [4] of 1.53 s⁻¹ and a Kd [5] of 28.3 µM.

B1: E6CT11, 11mer peptide representing the complete disordered C-terminus of HPV 51 E6 (Ac-QRTRQRNETQV) (peptide)
peptide: Ac-QRTRQRNETQV
notes: HPV 51 E6 residues 141 to 151; also called E6CT11 peptide
With B1 the koff [4] was 1.01 s⁻¹, the Kd [5] was 9.6 µM and the “fold change of the association rate against E6CT6” value [5] was about 2 fold.

B2: second (C-terminal) zinc-binding domain of HPV 51 E6 (domain or fragment)
chain: GSHMSRSVYGTTLEAITKKSLYDLSIRCHRCQRPLGPEEKQKLVDEKKRFHEIAGRWTGQCANCWQRTRQRNETQV
modifications: 15N labelled in the titration with hDlgPDZ2; binds one zinc ion
notes: source: E. coli BL21 (DE3), FPLC-purified
B2: binds [6].

B3: 16 (co) E6FL: full-length HPV 16 E6, His6-tagged (protein, UniProt P03126 1-158, looked up)
chain: MHQKRTAMFQDPQERPRKLPQLCTELQTTIHDIILECVYCKQQLLRREVYDFAFRDLCIVYRDGNPYAVCDKCLKFYSKISEYRHYCYSLYGTTLEQQYNKPLCDLLIRCINCQKPLCPEEKQRHLDKKQRFHNIRGRWTGRCMSCCRSSRTRRETQL
modifications: full-length His6 tag
notes: full-length HPV 16 E6, His6-tagged
For B3, the “solubility of recombinant E6 construct” value [3] was “Insoluble”.

B4: 31 (co) E6FL: full-length HPV 31 E6, His6-tagged (protein, UniProt P17386 1-149, looked up)
chain: MFKNPAERPRKLHELSSALEIPYDELRLNCVYCKGQLTETEVLDFAFTDLTIVYRDDTPHGVCTKCLRFYSKVSEFRWYRYSVYGTTLEKLTNKGICDLLIRCITCQRPLCPEEKQRHLDKKKRFHNIGGRWTGRCIACWRRPRTETQV
modifications: full-length His6 tag
notes: full-length HPV 31 E6, His6-tagged
For B4, the “solubility of recombinant E6 construct” value [3] was “Insoluble”.

B5: 45 E6FL: full-length HPV 45 E6, His6-tagged (protein, UniProt P21735 1-158, looked up)
chain: MARFDDPKQRPYKLPDLCTELNTSLQDVSIACVYCKATLERTEVYQFAFKDLCIVYRDCIAYAACHKCIDFYSRIRELRYYSNSVYGETLEKITNTELYNLLIRCLRCQKPLNPAEKRRHLKDKRRFHSIAGQYRGQCNTCCDQARQERLRRRRETQV
modifications: full-length His6 tag
notes: full-length HPV 45 E6, His6-tagged
In the case of B5, the “solubility of recombinant E6 construct” value [3] is reported as “Insoluble”.

B6: HPV 16 E6: E6 oncoprotein of high-risk HPV 16 (protein, UniProt P03126 1-158, looked up)
Protein E6: MHQKRTAMFQDPQERPRKLPQLCTELQTTIHDIILECVYCKQQLLRREVYDFAFRDLCIVYRDGNPYAVCDKCLKFYSKISEYRHYCYSLYGTTLEQQYNKPLCDLLIRCINCQKPLCPEEKQRHLDKKQRFHNIRGRWTGRCMSCCRSSRTRRETQL
In the case of B6, the “E6 dependent reduction of hDlg levels” value (hDlg) is listed as “reduction of hDlg levels” and the “interaction with hDlgPDZ2” value (hDlgPDZ2 [1]) is listed as “interact with hDlgPDZ2”.
